For assay [1], the target named is T1, recombinant DPP9-short (His-tagged DPP9 wild type) (UniProt Q86TI2 1-863).
T1 construct: DPP9, short isoform (DPP9-short); The His tag is named only for the SPR experiment; also called DPP9 wt; dipeptidylpeptidase 9
The assay is described as follows: SPR; His-tagged DPP9 captured on a Ni2+ chelator chip (2500 to 3500 µRIU); peptide injected at 16 µM to 0.125 µM (Syk 1–31) or 32 µM to 1 µM (Syk 3–31); 20 mM Hepes, 150 mM NaCl, 0.005% Tween 20, 50 µM EDTA, pH 7.4; 40 µl/min; equilibrium binding analysis. To be noted: both partners purified.

Assay [2] has as its target T2, DPP9 S730G (inactive DPP9 variant) (UniProt Q86TI2 1-863, S730G).
T2 construct: DPP9 with the active-site serine mutated to glycine; Parent construct is surmised to be DPP9-short as in m1; source: recombinant
The description is as above. The settings on record: both partners purified.

T1 sequence (Q86TI2 whole entry, canonical isoform): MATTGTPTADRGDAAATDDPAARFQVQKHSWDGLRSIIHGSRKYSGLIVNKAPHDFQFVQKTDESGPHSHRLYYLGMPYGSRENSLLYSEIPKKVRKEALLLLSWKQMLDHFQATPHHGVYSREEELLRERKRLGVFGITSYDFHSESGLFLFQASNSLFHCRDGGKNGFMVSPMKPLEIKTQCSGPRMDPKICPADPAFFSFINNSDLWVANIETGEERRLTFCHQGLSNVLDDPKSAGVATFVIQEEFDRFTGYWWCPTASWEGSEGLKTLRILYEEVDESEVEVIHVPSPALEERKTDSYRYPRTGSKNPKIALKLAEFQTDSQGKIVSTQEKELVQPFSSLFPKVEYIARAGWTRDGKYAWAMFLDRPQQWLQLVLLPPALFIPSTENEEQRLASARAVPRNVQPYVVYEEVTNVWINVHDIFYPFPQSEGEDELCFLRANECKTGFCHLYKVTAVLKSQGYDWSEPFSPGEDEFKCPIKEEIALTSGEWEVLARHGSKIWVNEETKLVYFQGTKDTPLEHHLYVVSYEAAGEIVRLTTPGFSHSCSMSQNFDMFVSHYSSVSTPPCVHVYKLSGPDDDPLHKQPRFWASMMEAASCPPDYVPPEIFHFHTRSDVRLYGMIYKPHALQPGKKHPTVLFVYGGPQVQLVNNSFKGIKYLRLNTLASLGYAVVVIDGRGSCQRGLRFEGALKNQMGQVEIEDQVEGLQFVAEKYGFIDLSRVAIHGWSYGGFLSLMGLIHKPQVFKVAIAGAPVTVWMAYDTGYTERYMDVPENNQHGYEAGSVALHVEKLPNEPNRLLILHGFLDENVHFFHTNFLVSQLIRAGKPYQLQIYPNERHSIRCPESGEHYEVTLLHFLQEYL
T2 sequence (Q86TI2 whole entry S730G): as the sequence (Q86TI2 whole entry, canonical isoform) above, with S730G counted along it

B1: synthetic Syk (1–31) peptide covering the first 31 amino acids of full-length Syk (peptide)
peptide: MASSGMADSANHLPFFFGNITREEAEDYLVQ
notes: tyrosine kinase Syk, residues 1–31; also called Syk N-terminus peptide (1–31); Syk amino terminus peptide 1–31; source: synthetic peptide (custom-made by GenScript, >80% purity)
For the molecule B1, the Kd (as a rule, the concentration at which binding is half-saturated) in assay [1] was determined as 52 µM; in assay [2] it was 284 µM.

B2: Syk△MA (3–31) peptide (peptide)
peptide: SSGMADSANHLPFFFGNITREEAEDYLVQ
notes: tyrosine kinase Syk, residues 3–31; also called Syk (3–31); source: synthetic peptide (custom-made by GenScript, >80% purity)
As to B2, the Kd in assay [1] turned out to be 156 µM.

Source of the values: paper PMC5039030, “DPP9 is a novel component of the N-end rule pathway targeting the tyrosine kinase Syk” (eLife, 2016).
